Measured values published in patent US20170081379A1.
Bridge positions count the residues as written; N and C are the ends. Square brackets hold non-standard residues; d marks the D form. Ends that are not written are not given here. R8 = C=CCCCCCC[C@@](C)(N)C(=O)O; S5 = C=CCCC[C@](C)(N)C(=O)O

What was measured:
[1] = molecular target: recombinant HDM2 17-125 (human) (UniProt Q00987); test: fluorescence polarization, FITC-labeled peptide with HDM2 17-125
[2] = molecular target: recombinant HDM2 17-125 (human) (UniProt Q00987); test: fluorescence polarization, FITC-peptide with titrated HDM2 17-125; the concentration is that of hDM2

Chain of recombinant HDM2 17-125 (human) (Q00987 17-125 limits assumed): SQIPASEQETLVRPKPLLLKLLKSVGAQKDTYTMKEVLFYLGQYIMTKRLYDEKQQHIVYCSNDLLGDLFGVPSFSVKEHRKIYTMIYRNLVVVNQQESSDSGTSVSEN

Binder	Kd [1] [nM]	EC50 (read off the curve) [2] [pM]
LSQETF[R8]NLWKLL[S5]QN-NH2 (peptide, from a related filing, staple 7-14; not fully specified (N-terminus)) [FITC-SAH-p53-5]	0.8	800
LSQETF[R8]DLWKLL[S5]EN-NH2 (peptide, from a related filing, staple 7-14; not fully specified (N-terminus)) [FITC-SAH-p53-4]	0.92	–
LSQQTF[R8]NLWRLL[S5]QN-NH2 (peptide, from a related filing, staple 7-14; not fully specified (N-terminus)) [FITC-SAH-p53-6]	56	–
QSQQTF[R8]NLWKLL[S5]QN-NH2 (peptide, from a related filing, staple 7-14; not fully specified (N-terminus)) [FITC-SAH-p53-7]	50	–
